Entries after “also recorded” stand apart in the source; their conditions may differ.
Assay: Adverse events, safety and tolerability in healthy men
[1] = 200 μg/kg group, of the 7 events
[2] = 300 μg/kg group, of the 13 events

Text: Safety: Safety and tolerance evaluations included: • Tolerability including local reactions at the injection site. • Vital signs (blood pressure [BP], pulse rate [PR], respiration rate [RR], and temperature). • Routine clinical laboratory tests (hematology, serum biochemistry, and urinalysis). • Recording of adverse events (AE). • Electrocardiograms (ECG) at baseline and Day 8.
Descriptive statistics were used to summarize adverse events (AEs). Descriptive statistics, with change from baseline, were used for clinical laboratory results, vital signs, and flow cytometry data. Shift tables were prepared for clinical laboratory results. Other data are listed.
Safety evaluations are based on AEs, PEs, vital signs, temperature, and laboratory results from baseline to study completion. Laboratory measurements were conducted by a local clinical laboratory. Using standard procedures, blood samples were drawn or urine collected from subjects for the following laboratory tests:
All AEs were coded using the Medical Dictionary for Regulatory Activities Version 5.1 (MedDRA®).

Asp-Arg-Val-Tyr-Ile-His-Pro [USB003]
incidence of ALT increase (200 μg/kg): 22.2%
incidence of body temperature increase (200 μg/kg): 0.0%
ALT increased, Events (200 μg/kg (N = 9)): 2
ALT increased, Subjects (200 μg/kg (N = 9)): 2 (22.2) N (%)
AST increased, Events (200 μg/kg (N = 9)): 1
AST increased, Subjects (200 μg/kg (N = 9)): 1 (11.1) N (%)
Body temperature increased, Events (200 μg/kg (N = 9)): 0
Body temperature increased, Subjects (200 μg/kg (N = 9)): 0 (0.0) N (%)
Cyst NOS, Events (200 μg/kg (N = 9)): 1
Cyst NOS, Subjects (200 μg/kg (N = 9)): 1 (11.1) N (%)
Gastroesophageal reflux, Events (200 μg/kg (N = 9)): 0
Gastroesophageal reflux, Subjects (200 μg/kg (N = 9)): 0 (0.0) N (%)
Gastrointestinal disorders, Events (200 μg/kg (N = 9)): 0
Gastrointestinal disorders, Subjects (200 μg/kg (N = 9)): 0 (0.0) N (%)
Headache, Events (200 μg/kg (N = 9)): 0
Headache, Subjects (200 μg/kg (N = 9)): 0 (0.0) N (%)
Infections/Infestations, Events (200 μg/kg (N = 9)): 0
Injury, poisoning and procedural complications, Events (200 μg/kg (N = 9)): 0
Injury, poisoning and procedural complications, Subjects (200 μg/kg (N = 9)): 0 (0.0) N (%)
Investigations, Events (200 μg/kg (N = 9)): 4
Investigations, Subjects (200 μg/kg (N = 9)): 2 (22.2) N (%)
Joint sprain, Events (200 μg/kg (N = 9)): 0
Joint sprain, Subjects (200 μg/kg (N = 9)): 0 (0.0) N (%)
Nasal congestion, Events (200 μg/kg (N = 9)): 1
Nasal congestion, Subjects (200 μg/kg (N = 9)): 1 (11.1) N (%)
Nausea, Events (200 μg/kg (N = 9)): 0
Nausea, Subjects (200 μg/kg (N = 9)): 0 (0.0) N (%)
Neoplasms benign, Events (200 μg/kg (N = 9)): 1
Neoplasms benign, Subjects (200 μg/kg (N = 9)): 1 (11.1) N (%)
Nervous system disorders, Events (200 μg/kg (N = 9)): 0
Nervous system disorders, Subjects (200 μg/kg (N = 9)): 0 (0.0) N (%)
Neutrophil count increased, Events (200 μg/kg (N = 9)): 0
Neutrophil count increased, Subjects (200 μg/kg (N = 9)): 0 (0.0) N (%)
Pharyngitis, Events (200 μg/kg (N = 9)): 1
Pharyngitis, Subjects (200 μg/kg (N = 9)): 1 (11.1) N (%)
Respiratory, thoracic and mediastinal disorders, Events (200 μg/kg (N = 9)): 2
Respiratory, thoracic and mediastinal disorders, Subjects (200 μg/kg (N = 9)): 1 (11.1) N (%)
Subjects With At Least 1 AE, Events (200 μg/kg (N = 9)): 7
Subjects With At Least 1 AE, Subjects (200 μg/kg (N = 9)): 4 (44.4) N (%)
WBC increased, Events (200 μg/kg (N = 9)): 1
WBC increased, Subjects (200 μg/kg (N = 9)): 1 (11.1) N (%)
White blood cells in urine, Events (200 μg/kg (N = 9)): 0
White blood cells in urine, Subjects (200 μg/kg (N = 9)): 0 (0.0) N (%)
subjects with clinically significant (CS) out-of-range laboratory values (200 μg/kg dose group): 3
total CS laboratory abnormalities (200 μg/kg dose group): 6
incidence of AEs (200 μg/kg group): 44.4%
AE events assessed as doubtful relationship to study drug [1]: 3
AE events assessed as not related to study drug [1]: 2
AE events assessed as possible relationship to study drug [1]: 2
adverse event, Subject 028 (200 μg/kg, Day 7, resolved without treatment on Study Day 10): cystic nodule on their anterior abdominal wall
incidence of ALT increase (300 μg/kg): 0.0%
incidence of body temperature increase (300 μg/kg): 50%
ALT increased, Events (300 μg/kg (N = 8)): 0
ALT increased, Subjects (300 μg/kg (N = 8)): 0 (0.0) N (%)
AST increased, Events (300 μg/kg (N = 8)): 1
AST increased, Subjects (300 μg/kg (N = 8)): 1 (12.5) N (%)
Body temperature increased, Events (300 μg/kg (N = 8)): 7
Body temperature increased, Subjects (300 μg/kg (N = 8)): 4 (50.0) N (%)
Cyst NOS, Events (300 μg/kg (N = 8)): 0
Cyst NOS, Subjects (300 μg/kg (N = 8)): 0 (0.0) N (%)
Gastroesophageal reflux, Events (300 μg/kg (N = 8)): 0
Gastroesophageal reflux, Subjects (300 μg/kg (N = 8)): 0 (0.0) N (%)
Gastrointestinal disorders, Events (300 μg/kg (N = 8)): 1
Gastrointestinal disorders, Subjects (300 μg/kg (N = 8)): 1 (12.5) N (%)
Headache, Events (300 μg/kg (N = 8)): 0
Headache, Subjects (300 μg/kg (N = 8)): 1 (12.5) N (%)
Infections/Infestations, Events (300 μg/kg (N = 8)): 1
Injury, poisoning and procedural complications, Events (300 μg/kg (N = 8)): 1
Injury, poisoning and procedural complications, Subjects (300 μg/kg (N = 8)): 1 (12.5) N (%)
Investigations, Events (300 μg/kg (N = 8)): 9
Investigations, Subjects (300 μg/kg (N = 8)): 4 (50.0) N (%)
Joint sprain, Events (300 μg/kg (N = 8)): 1
Joint sprain, Subjects (300 μg/kg (N = 8)): 1 (12.5) N (%)
Nasal congestion, Events (300 μg/kg (N = 8)): 0
Nasal congestion, Subjects (300 μg/kg (N = 8)): 0 (0.0) N (%)
Nausea, Events (300 μg/kg (N = 8)): 1
Nausea, Subjects (300 μg/kg (N = 8)): 1 (12.5) N (%)
Neoplasms benign, Events (300 μg/kg (N = 8)): 0
Neoplasms benign, Subjects (300 μg/kg (N = 8)): 0 (0.0) N (%)
Nervous system disorders, Events (300 μg/kg (N = 8)): 0
Nervous system disorders, Subjects (300 μg/kg (N = 8)): 1 (12.5) N (%)
Neutrophil count increased, Events (300 μg/kg (N = 8)): 1
Neutrophil count increased, Subjects (300 μg/kg (N = 8)): 1 (12.5) N (%)
Pharyngitis, Events (300 μg/kg (N = 8)): 0
Pharyngitis, Subjects (300 μg/kg (N = 8)): 0 (0.0) N (%)
Respiratory, thoracic and mediastinal disorders, Events (300 μg/kg (N = 8)): 0
Respiratory, thoracic and mediastinal disorders, Subjects (300 μg/kg (N = 8)): 0 (0.0) N (%)
Subjects With At Least 1 AE, Events (300 μg/kg (N = 8)): 13
Subjects With At Least 1 AE, Subjects (300 μg/kg (N = 8)): 4 (50.0) N (%)
WBC increased, Events (300 μg/kg (N = 8)): 0
WBC increased, Subjects (300 μg/kg (N = 8)): 0 (0.0) N (%)
White blood cells in urine, Events (300 μg/kg (N = 8)): 0
White blood cells in urine, Subjects (300 μg/kg (N = 8)): 0 (0.0) N (%)
subjects with clinically significant (CS) out-of-range laboratory values (300 μg/kg dose group): 1
total CS laboratory abnormalities (300 μg/kg dose group): 2
subjects with elevations in oral body temperature assessed as an AE (300 μg/kg dose group, temperature >37.7° C.): 4
incidence of AEs (300 μg/kg group): 50.0%
AE events assessed as doubtful relationship to study drug [2]: 2
AE events assessed as not related to study drug [2]: 3
AE events assessed as possible relationship to study drug [2]: 8
onset of headache after the morning dose, Subject 053 (300 μg/kg, Day 2): 10 h
time to resolution of headache without treatment, Subject 053 (300 μg/kg, Day 2): 5 h
severity of ankle sprain, Subject 046 (300 μg/kg, study Day 18): Grade 2
deaths or serious adverse events (SC doses of 200 and 300 μg/kg): no deaths or other serious adverse events; also recorded: no deaths or SAEs
discontinuation from the study because of an AE (SC doses of 200 and 300 μg/kg): no subject discontinued from the study because of an AE; also recorded: no AE led to withdrawal from the study
safety and tolerability (SC doses of 200 and 300 μg/kg): safe and well tolerated
CTC scores of AEs (whole study): no AEs with CTC scores of Grade 3 or higher and only 1 Grade 2 toxicity

Source: patent publication US20090227507A1, “Angiotensin (1-7) Dosage Forms and Uses Thereof” (UNIVERSITY OF SOUTHERN CALIFORNIA, priority 2008, published 2009)
